The labels stand for the following.
B1: 40 (VHH)
VHH: QVQLVESGGGLVQAGGSLRLSCAASGFPVQGTWMEWYRQAPGKEREWVAAITSVGYRTYYADSVKGRFTISRDNAKNTVYLQMNSLKPEDTAVYYCNVKDEGAIAKNYDYWGQGTQVTVS
B2: 61 (VHH)
VHH: QVQLVESGGGLVQAGGSLRLSCAASGFPVQHEWMEWYRQAPGKEREWVAAITSYGYRTYYADSVKGRFTISRDNAKNTVYLQMNSLKPEDTAVYYCNVKDTGTYQAWYDYWGQGTQVTVS
B3: 54 (VHH)
VHH: QVQLVESGGGLVQAGGSLRLSCAASGFPVWNTWMEWYRQAPGKEREWVAAITSYGFKTYYADSVKGRFTISRDNAKNTVYLQMNSLKPEDTAVYYCNVKDEGNSQSHYDYWGQGTQVTVS
B4: 52 (VHH)
VHH: QVQLVESGGGLVQAGGSLRLSCAASGFPVNYNWMEWYRQAPGKEREWVAAITSWGYKTYYADSVKGRFTISRDNAKNTVYLQMNSLKPEDTAVYYCNVKDEGMWQHYYDYWGQGTQVTVS
B5: 45 (VHH)
VHH: QVQLVESGGGLVQAGGSLRLSCAASGFPVAGTWMEWYRQAPGKEREWVAAITSYGYRTYYADSVKGRFTISRDNAKNTVYLQMNSLKPEDTAVYYCNVKDEGKSSQVYDYWGQGTQVTVS
B6: 66 (VHH)
VHH: QVQLVESGGGLVQAGGSLRLSCAASGFPEVNTWMEWYRQAPGKEREWVAAITSYGYRTYYADSVKGRFTISRDNAKNTVYLQMNSLKPEDTAVYYCNVKDEGSQSWAYDYWGQGTQVTVS
B7: 48 (VHH)
VHH: QVQLVESGGGLVQAGGSLRLSCAASGFPVAHWWMEWYRQAPGKEREWVAAIFSEGNWTHYADSVKGRFTISRDNAKNTVYLQMNSLKPEDTAVYYCNVKDTGATQFAYDYWGQGTQVTVS
B8: 63 (VHH)
VHH: QVQLVESGGGLVQAGGSLRLSCAASGFPVNAEIMFWYRQAPGKEREWVAAIKSAGTTTLYADSVKGRFTISRDNAKNTVYLQMNSLKPEDTAVYYCNVKDYGAQAHYYDYWGQGTQVTVS
B9: 56 (VHH)
VHH: QVQLVESGGGLVQAGGSLRLSCAASGFPVEMWSMEWYRQAPGKEREWVAAIMSFGYQTWYADSVKGRFTISRDNAKNTVYLQMNSLKPEDTAVYYCNVKDAGNSKALYDYWGQGTQVTVS
B10: 71 (VHH)
VHH: QVQLVESGGGSVQAGGSLRLSCAASGNIQHIKYLGWFRQAPGREREGVAALMTRYGQTYYADSVKGRFTVSLDNAKNTVYLQMNSLKPEDTALYYCAAAHYGDNFPLAYQAYLYWGQGTQVTVS
B11: 39 (VHH)
VHH: QVQLVESGGGPVQAGGSLRLSCAASGFPVMWSHMHWYRQAPGKEREWVAAIVSYGAYTIYADSVKGRFTISRDNAKNTVYLQMNSLKPEDTAVYYCNVKDFGGYRYYYDYWGQGTQVTVS
B12: 47 (VHH)
VHH: QVQLVESGGGLVQAGGSLRLSCAASGFPVVWAHMHWYRQAPGKEREWVAAITSEGAHTIYADSVKGRFTISRDNAKNTVYLQMNSLKPEDTAVYYCNVKDWGTYSTYYDYWGQGTQVTVS
B13: 67 (VHH)
VHH: QVQLVESGGGLVQAGGSLRLSCAASGFPVMWAHMAWYRQAPGKEREWVAAIVSAGAYTHYADSVKGRFTISRDNAKNTVYLQMNSLKPEDTAVYYCNVKDWGTYNSYYDYWGQGTQVTVS
B14: 58 (VHH)
VHH: QVQLVESGGGLVQAGGSLRLSCAASGFPVDAAWMEWYRQAPGKEREWVAAITSYGYRTYYADSVKGRFTISRDNAKNTVYLQMNSLKPEDTAVYYCNVKDMDRWRTTYDYWGQGTQVTVS
B15: 44 (VHH)
VHH: QVQLVESGGGLVQAGGSLRLSCAASGFPVERKHMLWYRQSPGKEREWVAAIVSYGNYTTYADSVKGRFTISRDNAKNTVYLQMNSLKPEDTAVYYCNVKDHGFNTVLYDYWGQGTQVTVS
B16: 78 (VHH)
VHH: QVQLVESGGGSVQAGGSLRLSCAASGYIKSIKYLGWFRQAPGKEREGVAALMTRYGETYYADSVKGRFTVSLDNAKNTVYLQMNSLKPEDTALYYCAAANYGNNWPLTGVNYWYWGQGTQVTVS
B17: 49 (VHH)
VHH: QVQLVESGGGLVQAGGSLRLSCAASGFPVHYTHMHWYRQAPGKEREWVAAIASSGAYTVYADSVKGRFTISRDNAKNTVYLQMNSLKPEDTAVYYCNVKDWGTYNTYYDYWGQGTQVTVS
B18: 46 (VHH)
VHH: QVQLVESGGGLVQAGGSLRLSCAASGFPVNYTIMFWYRKAPGKEREWVAAIKSHGATTLYADSVKGRFTISRDNAKNTVYLQMNSLKPEDTAVYYCNVKDVGNDQKSYDYWGQGTQVTVS
B19: 51 (VHH)
VHH: QVQLVESGGGLVQAGGSLRLSCAASGFPVKETWMHWYRQAPGKEREWVAAITSFGYKTYYADSVKGRFTISRDNAKNTVYLQMNSLKPEDTAVYYCNVKDAGDVTHQYDYWGQGTQVTVS
B20: 41 (VHH)
VHH: QVQLVESGGGLVQAGGSLRLSCAASGFPVEHQHMHWYRQAPGKEREWVAAIVSTGHYTIYADSVKGRFTISRDNAKNTVYLQMNSLKPEDTAVYYCNVKDWGDTSQYYDYWGQGTQVTVS
B21: 43 (VHH)
VHH: QVQLVESGGGLVQAGGSLRLSCAASGFPVEWTHMHWYRQAPGKEREWVAAIASSGAYTVYADSVKGRFTISRDNAKNTVYLQMNSLKPEDTAVYYCNVKDWGSQDRYYDYWGQGTQVTVS
B22: 50 (VHH)
VHH: QVQLVESGGGLVQAGGSLRLSCAASGFPVQYEHMHWYRQAPGKEREWVAAIVSEGAYTHYADSVKGRFTISRDNAKNTVYLQMNSLKPEDTAVYYCNVKDWGWLAQYYDYWGQGTQVTVS
B23: 57 (VHH)
VHH: QVQLVESGGGLVQAGGSLRLSCAASGFPVEHDHMHWYRQAPGKEREWVAAIVSQGAYTVYADSVKGRFTISRDNAKNTVYLQMNSLKPEDTAVYYCNVKDWGRAGARYDYWGQGTQVTVS
B24: 64 (VHH)
VHH: QVQLVESGGGLVQAGGSLRLSCAASGFPVYNRYMLWYRQAPGKEREWVAAITSYGYHTTYADSVKGRFTISRDNAKNTVYLQMNSLKPEDTAVYYCNVKDYGQHQQVYDYWGQGTQVTVS
B25: 68 (VHH)
VHH: QVQLVESGGGSVQAGGSLRLSCAASGTITNIGYLGWFRQAPGKEREGVAALKTYDGYTYYADSVKGRFTVSLDNAKNTVYLQMNSLKPEDTALYYCAAARHGRDEPLSYMYYSYWGQGTQVTVS
B26: 73 (VHH)
VHH: QVQLVESGGGSVQAGGSLRLSCAASGKIYQIGYLGWFRQAPGKEREGVAALMTTDGYTYYADSVKGRFTVSLDNAKNTVYLQMNSLKPEDTALYYCAAARHGRERPLHYWYYSYWGQGTQVTVS
B27: 60 (VHH)
VHH: QVQLVESGGGLVQAGGSLRLSCAASGFPVVAWQMTWYRQAPGKEREWVAAIRSFGVSTHYADSVKGRFTISRDNAKNTVYLQMNSLKPEDTAVYYCNVKDWGYEYEGYDYWGQGTQVTVS
B28: 75 (VHH)
VHH: QVQLVESGGGSVQAGGSLRLSCAASGYINQIYYLGWFRQAPGKEREGVAALNTYQGQTYYADSVKGRFTVSLDNAKNTVYLQMNSLKPEDTALYYCAAARWGRDEPLYHYYYSYWGQGTQVTVS
B29: 62 (VHH)
VHH: QVQLVESGGGLVQAGGSLRLSCAASGFPVEQEHMYWYRQASGKEREWVAAIVSEGAYTAYADSVKGRFTISRDNAKNTVYLQMNSLKPEDTAVYYCNVKDWGGYQWYYDYWGQGTQVTVS
B30: 69 (VHH)
VHH: QVQLVESGGGSVQAGGSLRLSCAASGYISEISYLGWFRQAPGKEREGVAALITGWGHTYYADSVKGRFTVSLDNAKNTVYLQMNSLKPEDTALYYCAAAQTGAWYPLETYIYHYWGQGTQVTVS
B31: 53 (VHH)
VHH: QVQLVESGGGLVQAGGSLRLSCAASGFPVYATVMHWYRQAPGKEREWVAAIYSTGMWTLYADSVKGRFTISRDNAKNTVYLQMNSLKPEDTAVYYCNVKDEGYDYYYYDYWGQGTQVTVS
B32: 77 (VHH)
VHH: QVQLVESGGGSVQAGGSLRLSCAASGSISSITYLGWFRQAPAKSVRAVAALDTEQGETYYADSVKGRFTVSLDNAKNTVYLQMNSLKPEDTALYYCAAANQHGGYYPLDSAWYTYWGQGTQVTVS

Consider 32 molecules from article PMC7642358 (Nature Communications, 2020).

The target in the assay is SARS-CoV-2 spike receptor-binding domain (2019-nCoV RBD-SD1, residues 319–566) (SARS-CoV-2, UniProt P0DTC2).
In the case of B1, the binding result is on record as “binds”.

As for B2, the binding result is given as “binds”. Turning to B3, the binding result was “binds”.

For B4, the binding result is reported as “binds”. Then B5, with “binds”. On to B6, for which the binding result was “binds”. B7: the binding result is reported as “binds”. For the molecule B8, the binding result is given as “binds”. Consider B9, for which the binding result is “binds”. Turning to B10, the binding result is “binds”.

For the molecule B11, the binding result was “binds”. In the case of B12, the binding result was “binds”. In the case of B13, the binding result is given as “binds”. Then B14, with “binds”; and B15, with “binds”.

Take B16: the binding result is given as “binds”.

Turning to B17, the binding result was “binds”. As to B18, the binding result is “binds”.

For the molecule B19, the binding result is reported as “binds”. Consider B20, for which the binding result is given as “binds”.

Regarding B21, the binding result is on record as “binds”. The value for B22 was “binds”; that for B23 was “binds”.

As to B24, the binding result is recorded as “binds”.

For B25, the binding result was “binds”. As to B26, the binding result was “binds”.

Consider B27, for which the binding result is given as “binds”. For B28, the binding result is given as “binds”.

Turning to B29, the binding result was “binds”. Regarding B30, the binding result is on record as “binds”.

As to B31, the binding result is given as “binds”.

Turning to B32, the binding result is “binds”.
